Read-outs that look alike come from different tables or passages of the source.
Key:
[1] = target: T1, Antibody 178-08_His 501.V2 (27079) (SARS-CoV-2, UniProt P0DTC2 16-685); test: SPR (Carterra)
[2] = target: T1, Antibody 178-08_His 501.V2 (27079); test: SPR (Carterra); remark: listed apart in the source

B1: 3-31 (Fc fusion)
chain: EVQLVESGGGLVQPGGSLRLSCAASGSTFSINAMGWFRQAPGKEREFVAGITSSGGYTNYADSVKGRFTISADNSKNTAYLQMNSLKPEDTAVYYCAADGVPEYSDYASGPVWGQGTLVTVSS
notes: also called Antibody 3-31
With B1 the Kd [1] was 96.7 µM and the Kd [2] was 96.7 µM.

Source: patent publication US20230192818A1 (TWIST BIOSCIENCE, published 2023)
